{"source": "patent US11859229B2", "about": "“Polyvinyl alcohol-degrading enzyme and process for producing the same” (Hayashibara Co., Ltd., priority 2017, dated 2024)", "molecules": {"B1": {"name": "PVA-A: purified PVA-degrading hybrid enzyme from Pseudomonas sp. VT1B strain, amino acid sequence of SEQ ID NO: 2 (protein, listed as Pseudomonas sp.)", "chain": "AENWPMFGKNYENTRATSDTQISTANISTLNVVRRTTDGGITGTPTVVDGVAYYSDFSGYVKAVRVSDGVVLWRVRPQTTMLSPSPFVTADTVYVAGNNSYVYALNRANGAVRWTTQIETSPNSRISSSPIVVGNILIIGTGSYQVFLPATPMFRGRVAFLNATTGAILPYSTNMCPSASCGGGISVWSTAAIDESTRTGYIGTGQAYRDPAGPYSDALVAFNIDTGAIRWARQFLANDVYQLGGTLRYDYDVGAAPNLFVANGQRMVGVGGKDGTYRAFNRDTGAPIWNTPVGRGSAIGGVMQSTAYGDGRIYVTSNTSTIGSGRNDPVPATAEASALDAATGAPVWIRQLDAGGFGGVAYANGLMYASTWDGRLRVFNAANGNIVREVQVSPSRGAYVPAPTDGFPNGSAGGPVVYGNRVLMGYGWTWVLNINGGLTTMEATVGGGASQTVTLASSSDTYVQSGTPTTNYAYDVNLLARLADAEGLTRASFLQFPLTAVPAGTITSARLRLYGRHDAPTGTGQSVSVWPGTKTTTWSGPNVTYNNSSTETGVDFYATSSIATATVGITPQYYEWNVTDYVASRRSLGHATFGVAVNSAHQYRVTLNSADNTANRPELVVTVSGGTGSQLPGSCPSGFTARAGVNQGFMHNGVARGFVLNVPANVSTPRPVFVSLTGSVESTNENLGARGGAGALNNDGFLVIGPVRRCAGQDPNGAGTSVNGGTCNQAGTGGWNWNPWNEGRVFAAAGDPWKTAEGPDSQFLEAVVRCVAASYPVDSTRMYLGGISSGATMTHRALLFNSDFWAGGLPLSGEWYVSQDNGTAYPGADEFAARRQAVINNPTKIFQGRVGPLPLPATQSPMIVISMWGGANDIWYCGSTLCADYRPSTQAASNYFSALPNVVHVACSSSHGHQWPTQNRAAFNTWAATTLASHPKGTPASSFVLPPPPAGYSCRVGRYTDHYSGT"}}, "assay_type_in_all_cases": "biochemical", "key": {"[1]": {"assay": "Degradation of PVA by PVA-degrading enzyme: time course of viscosity of reaction mixture", "conditions": "for Viscosity of reaction mixture: 35° C.", "procedure": "Using the purified enzyme preparation of PVA-A obtained by the method of Experiment 2, the enzyme preparations varying the amount of enzyme were allowed to act on substrate solutions varying in PVA concentration, and the time course of the degradation of PVA was investigated by measuring the reduction of viscosity of the reaction mixture.\nPVA as a substrate (Reagent grade polyvinyl alcohol, polymerization degree: 2,000, commercialized by Nacalai Tesque Inc., Kyoto, Japan), 50 mM sodium phosphate buffer (pH 7.0), and the purified enzyme solution of PVA-A dissolved in the same buffer were mixed, and the reaction mixtures (volume: 1 mL) with the final concentration of PVA of 1%, 4% or 10% (w/v), and the amount of PVA-A per 1 g-PVA of 1 (or 1.25), 5 or 10 units as PVA-oxidizing activity was prepared. Then, those reaction mixtures in plastic tubes were reacted with shaking at 160 rpm at 35° C. for 1, 4 or 20 hours. In each PVA concentration, a reaction mixture prepared by substituting the enzyme solution to 50 mM phosphate buffer (pH 7.0) was used as control (the amount of enzyme: zero unit). To viscosity measurement using “DV-II+Pro”, a cone-plate viscometer manufactured by Brookfield, Boston, USA, 0.6 mL of a reaction mixture obtained by reacting under each condition was subjected."}, "[2]": {"assay": "Gel filtration HPLC of PVA degradation products (molecular weight)", "conditions": "10 units of the enzyme on 1% (w/v) PVA for 20 hours; substrate PVA Mw about 10.6×10^4", "procedure": "While, the molecular weight of the degraded product of PVA was analyzed by conventional gel filtration HPLC for a reaction mixture obtained by allowing 10 units of the enzyme to act on 1% (w/v) PVA solution for 20 hours. Gel filtration HPLC was carried out using the following conditions: • Column: “TSKgel […]-4000” (manufactured by Tosoh Corporation, Tokyo, Japan) • (Two columns were tandemly connected.); • Eluent: 50 mM phosphate buffer eluent (pH7.0); • Column temperature: 40° C.; • Flow rate: 0.5 mL/min; • Detector: “RID-20A”, a differential refractometer, manufactured by Shimadzu Corporation, Kyoto, Japan.\nThe molecular weights of PVA and the degradation products of PVA were respectively calculated based on a calibration curve of molecular weights prepared by subjecting pullulan standards for molecular weight measurement, commercialized by Hayashibara Co., Ltd., Okayama, Japan, to gel filtration HPLC in the same manner. The gel filtration HPLC chromatogram of the reaction mixture (symbol “b” in FIG. 11) is shown in FIG. 11 in comparison with that of PVA used as a substrate (symbol “a” in FIG. 11)."}, "[3]": {"assay": "PVA-degrading (viscosity-reducing) activity", "conditions": "at each purification step", "procedure": "While, activity as a PVA-degrading enzyme can be measured, for example, by measuring the viscosity reduction of a PVA solution, caused by the degradation of PVA, as an index using the following method.\nTo 0.5 mL of a substrate solution prepared by dissolving PVA (Reagent grade polyvinyl alcohol, polymerization degree: 2,000, Nacalai Tesque Inc., Kyoto, Japan) into 100 mM sodium phosphate buffer (pH 7.0) to give a concentration of 2% (w/v), 15 µL of 2% (w/v) of sodium azide solution was added, and then 0.5 mL of an enzyme solution is further added and reacted with shaking at 27° C. for 60 min. After the reaction, 0.6 mL of the reaction mixture was withdrawn and its viscosity was measured using a Cone plate-type viscometer (“DV-II+Pro”, Brookfield Co., Ltd.) at 30° C. Separately, the enzyme solution was added to the substrate solution and the viscosity was measured immediately, and the viscosity was used as that at zero-min reaction. The PVA-degrading activity was calculated based on the following formula. One unit of the PVA-degrading activity was defined as the amount of enzyme that causes a 10%-reduction of relative viscosity per min under the above conditions. […]"}}, "data": [{"molecule": "B1", "values": [{"measurement": "Viscosity of reaction mixture", "setting": "[1]; PVA 1% (w/v), 1.25 U/g-PVA, 0 hour", "value": 2.7, "unit": "mPa·s"}, {"measurement": "Viscosity of reaction mixture", "setting": "[1]; PVA 1% (w/v), 1.25 U/g-PVA, 1 hour", "value": 2.3, "unit": "mPa·s"}, {"measurement": "Viscosity of reaction mixture", "setting": "[1]; PVA 1% (w/v), 1.25 U/g-PVA, 4 hours", "value": 1.7, "unit": "mPa·s"}, {"measurement": "Viscosity of reaction mixture", "setting": "[1]; PVA 1% (w/v), 1.25 U/g-PVA, 20 hours", "value": 1.4, "unit": "mPa·s"}, {"measurement": "Viscosity of reaction mixture", "setting": "[1]; PVA 1% (w/v), 5 U/g-PVA, 0 hour", "value": 2.5, "unit": "mPa·s"}, {"measurement": "Viscosity of reaction mixture", "setting": "[1]; PVA 1% (w/v), 5 U/g-PVA, 1 hour", "value": 1.6, "unit": "mPa·s"}, {"measurement": "Viscosity of reaction mixture", "setting": "[1]; PVA 1% (w/v), 5 U/g-PVA, 4 hours", "value": 1.3, "unit": "mPa·s"}, {"measurement": "Viscosity of reaction mixture", "setting": "[1]; PVA 1% (w/v), 5 U/g-PVA, 20 hours", "value": 1.2, "unit": "mPa·s"}, {"measurement": "Viscosity of reaction mixture", "setting": "[1]; PVA 1% (w/v), 10 U/g-PVA, 0 hour", "value": 2.7, "unit": "mPa·s"}, {"measurement": "Viscosity of reaction mixture", "setting": "[1]; PVA 1% (w/v), 10 U/g-PVA, 1 hour", "value": 1.4, "unit": "mPa·s"}, {"measurement": "Viscosity of reaction mixture", "setting": "[1]; PVA 1% (w/v), 10 U/g-PVA, 4 hours", "value": 1.3, "unit": "mPa·s"}, {"measurement": "Viscosity of reaction mixture", "setting": "[1]; PVA 1% (w/v), 10 U/g-PVA, 20 hours", "value": 1.2, "unit": "mPa·s"}, {"measurement": "Viscosity of reaction mixture", "setting": "[1]; PVA 4% (w/v), 1 U/g-PVA, 0 hour", "value": 34.0, "unit": "mPa·s"}, {"measurement": "Viscosity of reaction mixture", "setting": "[1]; PVA 4% (w/v), 1 U/g-PVA, 1 hour", "value": 35.6, "unit": "mPa·s"}, {"measurement": "Viscosity of reaction mixture", "setting": "[1]; PVA 4% (w/v), 1 U/g-PVA, 4 hours", "value": 18.6, "unit": "mPa·s"}, {"measurement": "Viscosity of reaction mixture", "setting": "[1]; PVA 4% (w/v), 1 U/g-PVA, 20 hours", "value": 6.6, "unit": "mPa·s"}, {"measurement": "Viscosity of reaction mixture", "setting": "[1]; PVA 4% (w/v), 5 U/g-PVA, 1 hour", "value": 30.3, "unit": "mPa·s"}, {"measurement": "Viscosity of reaction mixture", "setting": "[1]; PVA 4% (w/v), 5 U/g-PVA, 4 hours", "value": 11.9, "unit": "mPa·s"}, {"measurement": "Viscosity of reaction mixture", "setting": "[1]; PVA 4% (w/v), 5 U/g-PVA, 20 hours", "value": 3.7, "unit": "mPa·s"}, {"measurement": "viscosity after reaction relative to the start of the reaction", "setting": "[1]; PVA 4% (w/v), 5 units, 20 hours", "value": "about 1/10"}, {"measurement": "Viscosity of reaction mixture", "setting": "[1]; PVA 10% (w/v), 1 U/g-PVA, 0 hour", "value": 2530, "unit": "mPa·s"}, {"measurement": "Viscosity of reaction mixture", "setting": "[1]; PVA 10% (w/v), 1 U/g-PVA, 1 hour", "value": 1490, "unit": "mPa·s"}, {"measurement": "Viscosity of reaction mixture", "setting": "[1]; PVA 10% (w/v), 1 U/g-PVA, 4 hours", "value": 1550, "unit": "mPa·s"}, {"measurement": "Viscosity of reaction mixture", "setting": "[1]; PVA 10% (w/v), 1 U/g-PVA, 20 hours", "value": 873, "unit": "mPa·s"}, {"measurement": "Viscosity of reaction mixture", "setting": "[1]; PVA 10% (w/v), 5 U/g-PVA, 1 hour", "value": 1520, "unit": "mPa·s"}, {"measurement": "Viscosity of reaction mixture", "setting": "[1]; PVA 10% (w/v), 5 U/g-PVA, 4 hours", "value": 769, "unit": "mPa·s"}, {"measurement": "Viscosity of reaction mixture", "setting": "[1]; PVA 10% (w/v), 5 U/g-PVA, 20 hours", "value": 231, "unit": "mPa·s"}, {"measurement": "viscosity after reaction relative to the start of the reaction", "setting": "[1]; PVA 10% (w/v), 5 units per 1 g of PVA, 20 hours", "value": "about 1/10"}, {"measurement": "weight average molecular weight (Mw) of the degraded products of PVA", "setting": "[2]", "value": "about 4,400"}, {"measurement": "Total PVA-Degrading Activity (Viscosity-reducing Activity)", "setting": "[3]", "value": 8.2, "unit": "U"}]}]}
